This data set deals with the molecule itself. Put plainly: SDS-PAGE, reducing against non-reducing; m4-1BBL alone; about 40 kDa in reducing and about 70 kDa in non-reducing conditions (Supplementary Figure 3a).

B1: recombinant soluble mouse 4-1BBL (ligand, UniProt P41274 104-309, looked up)
chain: RTEPRPALTITTSPNLGTRENNADQVTPVSHIGCPNTTQQGSPVFAKLLAKNQASLCNTTLNWHSQDGAGSSYLSQGLRYEEDKKELVVDSPGLYYVFLELKLSPTFTNTGHKVQGWVSLVLQAKPQVDDFDNLALTVELFPCSMENKLVDRSWSQLLLLKAGHRLSVGLRAYLHGAQDAYRDWELSYPNTTSFGLFLVKPDNPWE
notes: 4-1BB ligand (4-1BBL, TNFSF9), mouse, recombinant soluble form; For the RICS imaging it was labelled with CF488A (Mix-n-Stain kit); also called m4-1BBL; 4-1BB-Ligand; source: bought: Biolegend (cat#754402)
With B1, the stoichiometry N – broadly, the number of molecules, sites or subunits per partner or assembly – is 3.

The record behind these values is PMC6237851, “A tumor-targeted trimeric 4-1BB-agonistic antibody induces potent anti-tumor immunity without systemic toxicity” (Nature Communications, 2018).
